Patent US20160228506A1, “Compositions and Formulations for Prevention and Reduction of Tumorigenesis, Cancer Cell Proliferation and Invasion, and Methods of Production and Use Thereof in Cancer Treatment” (PRONUTRIA, INC., priority 2013, published 2016)

How the values were obtained:
[1] = pH solubility; format: physicochemical; conditions: for pH Range where Protein is >80% detected as Soluble and A650 <1 OD: Low: lower pH; for pH Range where Protein is >80% detected as Soluble and A650 <1 OD: High: upper pH
Description: pH Solubility. […] Protein was either lyophilized and then resuspended in buffer cocktail mixtures, or concentrated and then spiked into buffer cocktail mixtures at a final protein concentration of 5 to 30 mg/ml. As a control, protein was also dissolved in a solution of 8 M urea. Protein solutions were shaken for 10 min at room temperature. Turbidity of proteins was determined by measuring the absorbance of protein solutions at 650 nm. The protein solution was then centrifuged for 10 min at 1100×g to pellet undissolved or precipitated protein. The soluble protein fraction (supernatant) was sampled and protein concentration was measured by one or more of the following methods: Coomassie Plus Protein Assay (Pierce), Chip electrophoresis, gel electrophoresis, and/or absorbance at 280 nm. The pH range over which select proteins remained greater than 80% soluble as determined by Bradford and the A650 value are listed in Table E31C.

[2] = Intact half-life during simulated gastric fluid (SGF) digestion; conditions: for SGF Half-life (t½): SGF pH 1.5, pepsin:polypeptide 1:20 w/w, 37° C., intact protein; for Half-life: purified proteins, chip electrophoresis
Description: In this experiment the nutritive polypeptide was exposed to a series of proteases that are active in the stomach (pepsin) and intestine (trypsin and chymotrypsin), and the presence of intact protein was measured over time. Specifically, the nutritive polypeptide was first treated at a concentration of 2 g/L with simulated gastric fluid (SGF) (0.03 M NaCl, titrated with HCl to pH 1.5 with a final pepsin:polypeptide ratio of 1:20 w/w) at 37° C. Time points were sampled from the reaction and quenched by addition of 0.2 M Na2CO3. […] Time points were sampled from the reaction and quenched by addition of Trypsin/Chymotrypsin Inhibitor (Sigma) solution until 240 min.
Time point samples were analyzed for intact protein by chip electrophoresis, polyacrylamide gel electrophoresis, or western blot. For chip electrophoresis (Labchip GX II), samples were analyzed using a HT Low MW Protein Express LabChip® Kit (following the manufacturer's protocol). A protein ladder was loaded every 12 samples for molecular weight determination (kDa) and quantification. For polyacrylamide gel electrophoresis, samples (1 μg) were separated on a NuPAGE® Novex® Bis-Tris Precast gel (Life Technologies) according to the manufacturer's protocol. The gel was stained using SimplyBlue™ SafeStain (Invitrogen) and imaged using a Chemidoc XRS+ (BioRad) or transferred onto nitrocellulose membranes using the iBlot® Dry Blotting System (Life Technologies) and iBlot® Western Detection Kit (Life Technologies) according to the manufacturer's protocol. Proteins were detected by blotting with Anti-His [C-term]-HRP antibody diluted 3:5000 in Blok™-PO Blocking Buffer using the SNAP I.d.® Protein Detection System (Millipore) according to the manufacturer's protocol. Blots were treated with Luminata Classico Western HRP Substrate (Millipore) according to the manufacturer's protocol and imaged using chemiluminescent detection on the Molecular Imager® Gel Doc™ XR+ System (Bio-Rad). Quantification of intact protein was determined by densitometry using ImageLab (BioRad). For all analysis methods the relative concentration of the polypeptide at each time point (if detected) was plotted overtime and fit to an exponential curve to calculate the intact half-life.
Specifically, the t=0 (enzyme-free control) and t=2 min samples from the SGF digest were analyzed for intact protein as described by chip electrophoresis, SDS-PAGE, western blot, and/or LC-MS/MS. Relative quantities of polypeptides at each time point were determined and the percentage of intact protein remaining at t=2 was determined. Intact half-life values determined using this method are reported as greater or less than 2 min to indicate more or less than 50% of the protein remained intact at t=2 min, respectively.

[3] = Thermostability, temperature of aggregation (ProteoStat Thermal Shift); format: physicochemical; parameters: key to Tagg: temperature in °C; conditions: for Tagg (pH 7.1): Table E31D, heated 25° C. to 95° C.
Description: The thermostability of proteins in a buffer cocktail of Citric Acid and Dibasic Sodium Phosphate over a pH range of 2.8 to 7.1 (preparation described above in Table E31B) was determined using the ProteoStat® Thermal Shift Stability Kit (Enzo Life Sciences) according to the manufacturer's standard protocol. Briefly, protein solutions (˜10 mg/ml) containing 1× ProteoStat TS Detection Reagent were heated from 25° C. to 95° C. at a rate of 0.5° C. per 30 sec using a real-time PCR (rtPCR) thermocycler (BioRad) equipped with a plate reader (SynergyMx, Biotek) while monitoring the fluorescence with a Texas Red filter.

[4] = SGF digest of 168 nutritive polypeptide library, intact protein by LC-MS/MS; format: in vitro ADME; conditions: for % Intact Protein at 10 min: 168 nutritive polypeptide library SGF digest, LC-MS/MS spectral counts; for % Remaining at 10 min: 168 nutritive polypeptide library, LC-MS/MS
Method in brief: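 A 168-protein IMAC-purified recombinant library was digested in simulated gastric fluid and the 0 and 10 min samples were profiled by SDS-PAGE fractionation, in-gel trypsin digestion and nanoLC-MS/MS. Percent intact protein at 10 min is the ratio of spectral counts (t10/t0), summed over the peak fraction and two flanking fractions. Filters were 1% FDR and at least two unique peptides.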

Row | Molecule | pH Range where Protein is >80% detected as Soluble and A650 <1 OD: Low [1] | pH Range where Protein is >80% detected as Soluble and A650 <1 OD: Other [1] | SGF Half-life (t½) [2] | Half-life [2] | Tagg ([3]; pH 2.8) | Tagg ([3]; pH 3.7) | Tagg ([3]; pH 4.3) | Tagg ([3]; pH 4.6) | Tagg ([3]; pH 5.0) | Tagg ([3]; pH 5.6) | Tagg ([3]; pH 6.0) | Tagg ([3]; pH 6.5) | Tagg ([3]; pH 7.1) | % Intact Protein at 10 min [4] | % Remaining at 10 min [4] | pH Range where Protein is >80% detected as Soluble and A650 <1 OD: High [1] | Tagg (pH 7.1) [3]
1 | SEQID-00502: protein of the 168 nutritive polypeptide library (protein, Glycine max, protein of the 168 nutritive polypeptide library) MASQSNTKSVHDFTVKDARGNNVNLADYKGKVLLIVNVASQCGLTNSNYTELNQLYEKYKGKGLEILAFPCNQFGAQEPGTNEEIVEFACTRFKAEFPIFDKVDVNGDNAAPLYKFLKSSKGGLFGDSIKWNFSKFLVDKDGNVVDRYAPTTSPLSIEKDIKKLLDA | 7.1 | 2.8 | 36 s | 36 s | 95 | 95 | 95^ | 95^ | 77 | 77 | 76.5 | 78.5 | 95 | 9.7% | 9.7% |  | 
2 | SEQID-00241: nutritive polypeptide (protein, listed as Bos taurus) SELKKDIDDLELTLAKVEKEKHATENKVKNLTEEMAGLDETIAKLTKEKKALQEAHQQTLDDLQAEEDKVNTLTKAKTKLEQQVDDLEGSLEQEKKLRMDLERAKRKLEGDLKLA | 4.3 |  | 18 s |  |  |  |  |  |  |  |  |  |  |  |  | 9.1 | >95
3 | SEQID-00226: nutritive polypeptide (protein, listed as Bos taurus) QLQALQAQLTDTKKKVDDDLGTIENLEEAKKKLLKDVEVLSQRLEEKALAYDKLEKTKTRLQQELDDLLVDLDHQRQIVSNLEKKQKKFDQLLAEEKNIS | 2.6 |  | 42 s |  |  |  |  |  |  |  |  |  |  |  |  | 9.1 | >95
4 | SEQID-00510: nutritive polypeptide naturally produced in Turkey, recombinantly expressed in E. coli (protein, Meleagris gallopavo, nutritive polypeptide naturally produced in Turkey, recombinantly expressed in E. coli) MVPIAEKMAEKQEEPSNTQNGEPDNAEEGEGKKKKKVKREDLPPFEIVTGERLPAIFFKFQFRNVEYSSGRNKTFLCYVVETQGKESTTSRGYLEDEHAASHAEIAFFNTILPKCESSLRYNITWYVSSSPCVTCADRISETLRKNKNLRLTIMVGRLFMWEEPEMQAALKKMKSAGCKLRIMKPQDFEYVWQNFVEQEEGEEAKAFVPWEDIQENFQYYEEKLAEILQ | 6.5 | 2.8 | 18 s | 18 s |  |  |  |  |  |  |  |  |  | 13.4% | 13.4% | 7.1 | 57.5
5 | SEQID-00269: nutritive polypeptide (protein) DLKKKLDDDLGTLENLEELKKKLLKDLELLSQRLEELALAYDKLEKTKTRLQQELDDLLLDLDHQ | 7.2 |  | 2460 s |  |  |  |  |  |  |  |  |  |  |  |  | 9.1 | >95
6 | SEQID-00265: nutritive polypeptide (protein, listed as Bos taurus) SEGDRLRVELAEKANKLQNELDNVSTLLEEAEKKGIKFAKDAAGLESQLQDTQELLQEETRQKLNLSSRIRQLEEERSSLQEQQEEEEEARRSLEKQLQALQAQLTDTKKKVDDDLGTIENLEEAKKKLLKDVEVLSQRLEEKALAYDKLEKTKTRLQQELDDLLVDLDHQRQIVSNLEKKQKKFDQLLAEEKNISARYAEERDRAEAEAREKETKALSLARALEEALEAREEAERQNKQLRADMEDLMSSKDDVGKNVHELEKSKRALE | 5.1 | 3 | 1740 s |  |  |  |  |  |  |  |  |  |  |  |  | 9.1 | >95
